Source: PMC5337984, “CTCF participates in DNA damage response via poly(ADP-ribosyl)ation”

Molecular target: T1, CTCF ZNF1-11 (GST-zinc finger domain) (human, UniProt P49711 266-577)
T1 sequence: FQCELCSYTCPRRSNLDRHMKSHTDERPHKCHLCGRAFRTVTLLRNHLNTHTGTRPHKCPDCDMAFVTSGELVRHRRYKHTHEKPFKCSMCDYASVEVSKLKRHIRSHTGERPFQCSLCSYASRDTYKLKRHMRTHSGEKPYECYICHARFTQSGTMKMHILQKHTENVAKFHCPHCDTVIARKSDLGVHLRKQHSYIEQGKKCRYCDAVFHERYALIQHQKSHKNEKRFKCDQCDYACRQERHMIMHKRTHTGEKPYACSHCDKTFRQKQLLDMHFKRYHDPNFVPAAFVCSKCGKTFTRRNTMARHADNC
Experiment: EMSA; 50 mM MgCl2; 200 ng poly(dI/dC); EMSA: 25 mM HEPES pH 8.0, 50 mM KCl, 50 mM MgCl2, 1% NP40, 10% glycerol, 200 ng poly(dI/dC), 20 min at 4 C; 1 pmol protein, 0.5 pmol DNA
Settings: protein: recombinant; tags: GST (pGEX-4T-1; N-terminal); label: 32P; blunt (only one strand printed; described as duplex oligonucleotide)

B1: insulator DNA 45-mer (dsDNA)
DNA 1: CCCCCAGGGATGTAATTACGTCCCTCCCCCGCTAGGGGGCAGCAG
DNA 2: CTGCTGCCCCCTAGCGGGGGAGGGACGTAATTACATCCCTGGGGG
B1: binds.
